Measurements: patent US20240294635A1 (CHIA TAI TIANQING PHARMACEUTICAL GROUP, published 2024)
Numbering of substitutions follows the chain as printed. In names and notes the source's numbering stands.

B1: hz16E5-1.2 (antibody, human IgG4 S228P, kappa)
heavy: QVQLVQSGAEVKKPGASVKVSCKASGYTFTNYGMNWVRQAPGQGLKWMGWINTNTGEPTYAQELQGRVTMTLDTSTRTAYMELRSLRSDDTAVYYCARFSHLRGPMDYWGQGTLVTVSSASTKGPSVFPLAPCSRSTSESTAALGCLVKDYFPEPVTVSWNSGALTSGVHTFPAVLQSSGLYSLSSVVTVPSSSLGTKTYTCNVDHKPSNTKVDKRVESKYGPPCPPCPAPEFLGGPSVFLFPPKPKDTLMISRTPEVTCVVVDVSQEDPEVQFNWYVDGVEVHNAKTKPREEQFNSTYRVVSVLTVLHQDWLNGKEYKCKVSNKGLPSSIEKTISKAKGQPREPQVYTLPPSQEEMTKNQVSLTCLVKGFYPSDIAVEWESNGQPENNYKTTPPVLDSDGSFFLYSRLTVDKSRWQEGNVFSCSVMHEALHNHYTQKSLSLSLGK
light: DIQMTQSPSSLSASVGDRVTITCRSSQSLVHSNGYTYLHWYQQKPGKAPKLLIYKVSNRFSGVPSRFSGSGSGTDFTLTISSLQPEDFATYYCSQSTHVPPTFGQGTKLEIKRTVAAPSVFIFPPSDEQLKSGTASVVCLLNNFYPREAKVQWKVDNALQSGNSQESVTEQDSKDSTYSLSSTLTLSKADYEKHKVYACEVTHQGLSSPVTKSFNRGEC
notes: humanized 16E5, full-length heavy and light chains
B2: hz16E5-1.3 (antibody, human IgG4 S228P, kappa)
heavy: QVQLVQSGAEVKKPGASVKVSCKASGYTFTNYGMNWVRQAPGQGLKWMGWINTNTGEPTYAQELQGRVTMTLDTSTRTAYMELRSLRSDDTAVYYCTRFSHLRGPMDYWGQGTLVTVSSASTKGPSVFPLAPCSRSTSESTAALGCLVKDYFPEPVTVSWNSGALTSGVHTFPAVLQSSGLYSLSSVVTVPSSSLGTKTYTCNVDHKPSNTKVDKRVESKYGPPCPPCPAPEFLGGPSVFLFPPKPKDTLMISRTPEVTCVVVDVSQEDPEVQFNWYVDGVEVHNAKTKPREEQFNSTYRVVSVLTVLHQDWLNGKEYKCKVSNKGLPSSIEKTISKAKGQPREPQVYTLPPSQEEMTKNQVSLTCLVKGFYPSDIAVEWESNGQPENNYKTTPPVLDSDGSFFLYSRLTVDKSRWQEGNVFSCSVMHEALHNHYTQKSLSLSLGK
light: B1 light
notes: as for B1
B3: hz16E5-3.2 (antibody, human IgG4 S228P, kappa)
heavy: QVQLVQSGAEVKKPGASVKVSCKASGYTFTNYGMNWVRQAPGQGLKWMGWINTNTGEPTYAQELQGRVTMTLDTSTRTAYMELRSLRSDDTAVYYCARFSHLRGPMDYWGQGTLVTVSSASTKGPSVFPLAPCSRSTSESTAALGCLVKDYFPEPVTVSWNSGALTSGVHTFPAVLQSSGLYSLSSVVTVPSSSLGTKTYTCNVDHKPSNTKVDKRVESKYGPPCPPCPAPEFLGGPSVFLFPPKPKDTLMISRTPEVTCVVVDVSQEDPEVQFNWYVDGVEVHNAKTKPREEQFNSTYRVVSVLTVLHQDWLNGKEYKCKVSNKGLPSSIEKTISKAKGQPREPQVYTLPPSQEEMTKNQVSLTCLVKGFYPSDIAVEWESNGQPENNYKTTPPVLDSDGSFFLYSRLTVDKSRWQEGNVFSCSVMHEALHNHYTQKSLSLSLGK
light: B1 light with I2A
notes: as for B1
B4: hz16E5-3.1 (antibody, human IgG4 S228P, kappa)
heavy: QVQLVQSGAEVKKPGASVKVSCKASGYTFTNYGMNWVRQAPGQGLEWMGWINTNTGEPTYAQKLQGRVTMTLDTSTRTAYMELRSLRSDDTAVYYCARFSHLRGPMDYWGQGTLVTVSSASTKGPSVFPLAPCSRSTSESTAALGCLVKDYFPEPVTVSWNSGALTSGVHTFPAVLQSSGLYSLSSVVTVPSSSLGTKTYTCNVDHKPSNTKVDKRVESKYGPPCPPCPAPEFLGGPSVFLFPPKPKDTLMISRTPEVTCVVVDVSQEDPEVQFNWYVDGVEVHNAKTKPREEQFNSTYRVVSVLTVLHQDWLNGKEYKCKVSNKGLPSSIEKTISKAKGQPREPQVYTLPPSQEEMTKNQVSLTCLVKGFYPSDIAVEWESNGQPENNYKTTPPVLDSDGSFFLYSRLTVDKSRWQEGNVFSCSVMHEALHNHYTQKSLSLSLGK
light: B1 light with I2A
notes: as for B1
B5: hz16E5-3.3 (antibody, human IgG4 S228P, kappa)
heavy: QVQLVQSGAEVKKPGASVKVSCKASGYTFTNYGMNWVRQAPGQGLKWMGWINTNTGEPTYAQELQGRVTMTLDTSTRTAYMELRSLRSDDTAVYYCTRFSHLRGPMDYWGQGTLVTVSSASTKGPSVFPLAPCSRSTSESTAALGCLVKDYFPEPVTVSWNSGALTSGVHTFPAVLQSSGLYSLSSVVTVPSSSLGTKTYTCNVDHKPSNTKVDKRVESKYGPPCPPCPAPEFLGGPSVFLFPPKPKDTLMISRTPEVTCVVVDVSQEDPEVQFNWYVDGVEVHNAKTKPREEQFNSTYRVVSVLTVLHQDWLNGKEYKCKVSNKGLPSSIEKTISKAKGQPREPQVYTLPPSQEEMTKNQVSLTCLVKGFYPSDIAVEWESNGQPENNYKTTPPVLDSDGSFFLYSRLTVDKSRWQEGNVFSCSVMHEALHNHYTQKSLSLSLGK
light: B1 light with I2A
notes: as for B1
B6: hz16E5-1.1 (antibody, human IgG4 S228P, kappa)
heavy: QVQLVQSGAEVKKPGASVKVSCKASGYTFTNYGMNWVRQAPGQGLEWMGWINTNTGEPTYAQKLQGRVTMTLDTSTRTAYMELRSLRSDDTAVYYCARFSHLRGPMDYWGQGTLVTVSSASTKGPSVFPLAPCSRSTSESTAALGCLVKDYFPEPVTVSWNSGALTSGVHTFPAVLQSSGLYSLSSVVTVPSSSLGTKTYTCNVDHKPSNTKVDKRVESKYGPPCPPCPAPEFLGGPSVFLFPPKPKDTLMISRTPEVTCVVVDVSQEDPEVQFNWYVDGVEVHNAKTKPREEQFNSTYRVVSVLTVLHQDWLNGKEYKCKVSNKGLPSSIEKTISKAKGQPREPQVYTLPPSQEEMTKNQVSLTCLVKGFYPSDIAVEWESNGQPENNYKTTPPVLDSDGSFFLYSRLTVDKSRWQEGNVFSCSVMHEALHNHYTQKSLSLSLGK
light: B1 light
notes: as for B1
B7: hz3F10-3.1 (antibody, human IgG4 S228P, kappa, V domains shown)
VH: QVQLVQSGAEVKKPGSSVKVSCKASGYTFSRYWIEWVRQAPGQGLEWMGEFIPGSDTTNYAQKFQGRVTITADISTSTAYMELSSLRSEDTAVYYCARGGLRRMDYWGQGTLVTVSS
VL: DIQMTQSPSSLSASVGDRVTITCRASSSVSSTYLHWYQQKPGKAPKLLIYTTSTLASGVPSRFSGSGSGTSYTLTISSLQPEDFATYYCQQFSDSTWTFGQGTKLEIKR
notes: humanized 3F10, full-length heavy and light chains
B8: hz3F10-4.1 (antibody, human IgG4 S228P, kappa, V domains shown)
VH: B7 VH
VL: B7 VL with D94E
notes: as for B7
B9: hz3F10-4.2 (antibody, human IgG4 S228P, kappa, V domains shown)
VH: B7 VH with D73E, S77N
VL: B7 VL with D94E
notes: as for B7
B10: hz3F10-3.2 (antibody, human IgG4 S228P, kappa, V domains shown)
VH: B7 VH with D73E, S77N
VL: B7 VL
notes: as for B7
B11: Xi14A9 (antibody, human IgG4 S228P, kappa, V domains shown)
VH: EVQLQQSGAEVARPGASVKLSCTVSGFNIEDDYIEWVKQRPEQGLEWIGRIDPANDKTKYAPKFQDKATITGDTSSNTAYLQLSSLTSEDTAVYYCTRPGLRRYYSMDYWGQGTSVTVSS
VL: NIVLTQSPKSMSMSVGERVTLSCKASENVVSYVSWYQQKPEQSPKLLIYGASNRYTGVPDRFIGSGSSTDFTLIISSFQPEDLADYHCGQSYSYPLTFGAGTKLELKR
notes: mouse variable regions on human IgG4 (EU S228P) and human kappa constant regions; also called chimeric 14A9 antibody
B12: Xi2B2 (antibody, human IgG4 S228P, kappa, V domains shown)
VH: EVMLVESGGGLVQPGGSLKLSCAASGFTFSNYYMSWVRQTPEKRLEWVAYISSGGGSTYYPDSVKGRFTISRDNAKNTLYLQMSSLKSEDTAMYYCAWFAYWGQGTLVTVSA
VL: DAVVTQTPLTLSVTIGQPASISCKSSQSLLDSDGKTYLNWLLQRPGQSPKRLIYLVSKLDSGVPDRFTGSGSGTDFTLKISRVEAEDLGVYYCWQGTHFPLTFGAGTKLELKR
notes: mouse variable regions on human IgG4 (EU S228P) and human kappa constant regions; also called chimeric 2B2 antibody

Each binder was assayed against T1, CD47 on the red cell surface (Homo sapiens (Human), UniProt Q08722 19-323) (assay: flow cytometry on fixed red cells, antibody 10 µg/mL).
Experimental: (§1) Anticoagulated blood was collected and well mixed with an equal amount of normal saline. The mixture was centrifuged at 2000 rpm/min for 5 min, and the supernatant was removed. […] In the first two washings, the mixture was centrifuged at 2000 rpm/min for 5 min, and in the last washing, the mixture was centrifuged at 2000 rpm/min for 10 min, and the supernatant was removed.
B1 showed an MFI of 4730 MFI. Work on B2 yielded an MFI of 4880 MFI. In the case of B3, the MFI is reported as 4200 MFI. B4 gave an MFI of 5140 MFI. B5 was tested, and the MFI was 3870 MFI. B6 showed an MFI of 6460 MFI. B7 gave an MFI of 41400 MFI. B8 was tested, and the MFI was 41900 MFI. Binder B9 has an MFI of 45600 MFI. For B10, the MFI was 45300 MFI.

These binders were tested against T2, human CD47 protein on CHO-K1-CD47 cells (human, UniProt Q08722 19-323) (assay: cell binding, CHO-K1-CD47 cells, high content imaging).
T2 construct: whole, on cells; also called CHO-K1 cells expressing human CD47 protein
Experimental: (§2) A cell binding assay of anti-CD47 antibodies (chimeric or humanized) was performed based on the binding to a CHO-K1 cell line stably expressing CD47. CHO-K1-CD47 cells (CHO-K1 cells expressing human CD47 protein) were added to each well of a 96-well plate (Eppendorf, Cat. No. C030730.119) at 1.2×10⁴ cells per well and incubated with anti-CD47 antibodies (20 μg/mL, 1:4 dilution in PBS) at room temperature for 1-2 h. […] The cells were incubated at room temperature for 30 min. The cells were washed three times with PBS buffer. A nuclear dye Hoechst (Sigma, Cat. No. B2261) was diluted with PBS buffer at a dilution ratio of 1:500 and then added to each well at 100 μL/well for staining for 10 min. The cells were washed 3 times with PBS and analyzed using a high content screening system (manufacturer: PerkinElmer; model: Operetta).
B2 was tested, and the EC50 was 18.8 µg/mL. B4 gave an EC50 of 5.88 µg/mL. For B5, the EC50 was 40.5 µg/mL. Binder B6 has an EC50 of 3.87 µg/mL. Work on B7 yielded an EC50 of 1.12 µg/mL. B8 was tested, and the EC50 was 1.16 µg/mL. B9 was tested, and the EC50 was 1.26 µg/mL. In the case of B10, the EC50 is reported as 1.2 µg/mL.

What follows are binders tested against T1, CD47 on the red cell surface (assay: cell-based or functional assay).
For B1, the “red cell agglutination, lowest concentration causing it” value (“red cell agglutination” below) was 3.3 µg/mL. B2 was tested, and the “red cell agglutination” value was 3.3 µg/mL. In the case of B3, the “red cell agglutination” value is reported as 3.3 µg/mL. In the case of B4, the “red cell agglutination” value is reported as 3.3 µg/mL. In the case of B5, the “red cell agglutination” value is reported as 3.3 µg/mL. For B6, the “red cell agglutination” value was 3.3 µg/mL. B7 was tested, and the “red cell agglutination” value was 3.3 µg/mL. In the case of B8, the “red cell agglutination” value is reported as 3.3 µg/mL. With B9 the “red cell agglutination” value was 3.3 µg/mL. For B10, the “red cell agglutination” value was 3.3 µg/mL.

These binders were tested against T3, CD47 on HL60 cells (UniProt Q08722 19-323, limits assumed) (assay: cell-based or functional assay).
With B11 the “rate of phagocytosis, antibody 1 µg/mL” value was 54.2% and the “rate of phagocytosis, antibody 10 µg/mL” value was 44.7%. In the case of B12, the “rate of phagocytosis, antibody 1 µg/mL” value is reported as 7.3% and the “rate of phagocytosis, antibody 10 µg/mL” value is reported as 4.1%.

These binders were tested against T4, human CD47 protein, His Tag (ACRObiosystems, Cat. No. CD7-H5227) (human, UniProt Q08722 19-139) (assay: ELISA, CD47-His coated, competition with Human-SIRPα-mFc).
T4 construct: bought reagent; also called CD47-His; hCD47-His Tag; not shown: His tag
B11 was tested, and the IC50 was 0.444 µg/mL.

What follows are binders tested against T1, CD47 on the red cell surface (assay: flow cytometry on fixed red cells, antibody 1 µg/mL).
Experimental: as §1
In the case of B1, the MFI is reported as 913 MFI. For B2, the MFI was 894 MFI. B3 showed an MFI of 860 MFI. B4 was tested, and the MFI was 945 MFI. B5 was tested, and the MFI was 848 MFI. Binder B6 has an MFI of 945 MFI. B7 was tested, and the MFI was 6700 MFI. For B8, the MFI was 5980 MFI. Work on B9 yielded an MFI of 4810 MFI. B10 showed an MFI of 5100 MFI.

Each binder was assayed against T4, human CD47 protein, His Tag … (assay: ELISA, plate coated with CD47-His).
Experimental: (§3) An ELISA binding assay was performed based on human CD47 protein and anti-CD47 chimeric antibodies or anti-CD47 humanized antibodies. […] The wells were aspirated, and non-specific binding sites were blocked by adding 100 L/well of a blocking solution (PBS with 1% (w/v) bovine serum albumin (BSA, Sigma, Cat. No. B2064-100G)) and incubating the plate at 37° C. for 1 h. After the 96-well plate was washed three times with a washing buffer (PBS with 0.01% (w/v) Tween 20 (Sigma, Cat. No. P9416-100ML)), 100 μL/well of 1:4 serial dilutions (from 30 g/mL) of anti-CD47 antibodies (see Table 3 for chimeric antibodies, and see Table 4 for humanized antibodies) in blocking solution were added, and the plate was incubated at room temperature for 2 h. […] After the 96-well plate was washed, 100 μL/well of a substrate solution TMB (TIANGEN, Cat. No. PA107-01) was added, and the 96-well plate was incubated at room temperature for 10 min. 100 μL/well of a stop solution (1 M H₂SO₄) was added to stop the reaction. Colorimetric signals were generated and read at 450 nm using a multifunctional microplate reader (manufacturer: PerkinElmer; model: EnVision). Data were analyzed using GraphPad Prism5, and EC₅₀ was calculated.
Work on B1 yielded an EC50 of 0.16 µg/mL. With B2 the EC50 was 0.138 µg/mL. B3 showed an EC50 of 0.215 µg/mL. For B4, the EC50 was 0.14 µg/mL. With B5 the EC50 was 0.241 µg/mL. B6 showed an EC50 of 0.306 µg/mL. Work on B7 yielded an EC50 of 0.127 µg/mL. B8 gave an EC50 of 0.115 µg/mL. Binder B9 has an EC50 of 0.181 µg/mL. Work on B10 yielded an EC50 of 0.166 µg/mL.

Target: T4, human CD47 protein, His Tag …
Test: ELISA, plate coated with CD47-His
Remark: another data set of the same source
Experimental: as §3
With B11 the EC50 was 0.273 µg/mL. B12 was tested, and the EC50 was 0.349 µg/mL.

Each binder was assayed against T4, human CD47 protein, His Tag … (assay: Biacore SPR, 25 C, antibody captured on CM5 chip).
With B1 the Kd was 9.31 nM. In the case of B2, the Kd is reported as 15.3 nM. For B3, the Kd was 17.1 nM. For B4, the Kd was 6.28 nM. B5 showed a Kd of 7.13 nM. B6 was tested, and the Kd was 18.9 nM. Work on B7 yielded a Kd of 1.53 nM. Work on B8 yielded a Kd of 1.42 nM. In the case of B9, the Kd is reported as 1.34 nM. Binder B10 has a Kd of 1.15 nM.

What follows are binders tested against T5, cynomolgus/rhesus macaque CD47 protein, His Tag (ACRObiosystems, Cat. No. CD7-C52H1) (cynomolgus monkey (cynomolgus/rhesus …, UniProt A0A2K5X523 19-141)) (assay: Biacore SPR, 25 C, antibody captured on CM5 chip).
T5 construct: bought reagent; also called Cynomolgus monkey CD47 protein
T5 sequence (A0A2K5X523 entry or part of it limits assumed): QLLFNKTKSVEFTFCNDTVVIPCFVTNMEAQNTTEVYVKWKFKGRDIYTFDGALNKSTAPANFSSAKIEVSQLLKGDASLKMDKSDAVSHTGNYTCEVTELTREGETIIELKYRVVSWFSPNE
With B1 the Kd was 2.26 nM. B2 gave a Kd of 2.73 nM. For B3, the Kd was 3.1 nM. With B4 the Kd was 3.28 nM. With B5 the Kd was 1.87 nM. Work on B6 yielded a Kd of 4.77 nM. B8 showed a Kd of 1.62 nM. Work on B9 yielded a Kd of 1.86 nM. In the case of B10, the Kd is reported as 1.47 nM.

Target: T1, CD47 on the red cell surface
Test: flow cytometry on fixed red cells, antibody 10 µg/mL
Remark: another data set of the same source
Experimental: as §1
B11 gave an MFI of 32800 MFI. For B12, the MFI was 608 MFI.

Target: T4, human CD47 protein, His Tag …
Test: ELISA, CD47-His coated, competition with Human-SIRPα-mFc
Remark: another data set of the same source
Experimental: The plate was let stand at 2-8° C. overnight. The wells were aspirated to remove the coating buffer and blocked with 100 μL/well of a blocking solution (PBS with 1% (w/v) bovine serum albumin (BSA, Sigma, Cat. No. B2064-100G)) by incubation at 37° C. for 1 h. The 96-well plate was washed with a washing buffer (PBS with 0.01% (w/v) Tween 20 (Sigma, Cat. No. P9416-100ML)). […] After the 96-well plate was washed with PBS washing buffer, anti-CD47 chimeric antibodies or anti-CD47 humanized antibodies (see Table 8 for chimeric antibodies, and see Table 9 for humanized antibodies) were added. 4-fold dilution was performed with PBS buffer from a starting concentration of 20 μg/mL, with 8 gradients obtained. The plate was incubated at room temperature for 1.5 h. […] After the 96-well plate was washed with PBS buffer, 100 μL/well of a substrate solution TMB (TIANGEN, Cat. No. PA107-01) was added, and the plate was incubated at room temperature for color development for 10 min. 100 μL/well of 1 M H₂SO₄ was added to stop the reaction. Colorimetric signals were generated and read at 450 nm using a multifunctional microplate reader (manufacturer: PerkinElmer; model: EnVision). Data were analyzed using GraphPad Prism5, and EC₅₀ was calculated.
In the case of B1, the IC50 is reported as 2.94 µg/mL. Work on B2 yielded an IC50 of 2.32 µg/mL. In the case of B3, the IC50 is reported as 2.05 µg/mL. For B4, the IC50 was 15.2 µg/mL. Binder B5 has an IC50 of 2 µg/mL. B7 gave an IC50 of 1.68 µg/mL. B8 was tested, and the IC50 was 1.95 µg/mL. B9 was tested, and the IC50 was 1.74 µg/mL. B10 gave an IC50 of 1.74 µg/mL.

Target: T3, CD47 on HL60 cells
Test: cell-based or functional assay
Remark: another data set of the same source
In the case of B1, the “rate of phagocytosis, antibody 1 µg/mL” value is reported as 5.1% and the “rate of phagocytosis, antibody 10 µg/mL” value is reported as 17.8%. For B2, the “rate of phagocytosis, antibody 1 µg/mL” value was 3.03% and the “rate of phagocytosis, antibody 10 µg/mL” value was 4.33%. B3 was tested, and the “rate of phagocytosis, antibody 1 µg/mL” value was 3.02% and the “rate of phagocytosis, antibody 10 µg/mL” value was 2.03%. B4 was tested, and the “rate of phagocytosis, antibody 1 µg/mL” value was 6.37% and the “rate of phagocytosis, antibody 10 µg/mL” value was 24.2%. With B5 the “rate of phagocytosis, antibody 1 µg/mL” value was 11.6% and the “rate of phagocytosis, antibody 10 µg/mL” value was 4.7%. For B6, the “rate of phagocytosis, antibody 1 µg/mL” value was 14.8% and the “rate of phagocytosis, antibody 10 µg/mL” value was 4.02%. B7 was tested, and the “rate of phagocytosis, antibody 1 µg/mL” value was 50.6% and the “rate of phagocytosis, antibody 10 µg/mL” value was 58.7%. B8 was tested, and the “rate of phagocytosis, antibody 1 µg/mL” value was 50.3% and the “rate of phagocytosis, antibody 10 µg/mL” value was 58.3%. With B9 the “rate of phagocytosis, antibody 1 µg/mL” value was 46.2% and the “rate of phagocytosis, antibody 10 µg/mL” value was 31.7%. B10 was tested, and the “rate of phagocytosis, antibody 1 µg/mL” value was 47% and the “rate of phagocytosis, antibody 10 µg/mL” value was 37.1%.

Target: T4, human CD47 protein, His Tag …
Test: Biacore SPR, 25 C, antibody captured on CM5 chip
Remark: another data set of the same source
B11 showed a Kd of 2.35 nM. With B12 the Kd was 7.48 nM.

Target: T5, cynomolgus/rhesus macaque CD47 protein, …
Test: Biacore SPR, 25 C, antibody captured on CM5 chip
Remark: another data set of the same source
B11 was tested, and the Kd was 1.58 nM. For B12, the Kd was 1.2 nM.

Target: T1, CD47 on the red cell surface
Test: flow cytometry on fixed red cells, antibody 1 µg/mL
Remark: another data set of the same source
Experimental: as §1
Work on B11 yielded an MFI of 26500 MFI. Binder B12 has an MFI of 656 MFI.

What follows are binders tested against T6, CD47 on Jurkat cells (UniProt Q08722 19-323, limits assumed) (assay: flow cytometry on Jurkat cells, competition with Human-SIRPα-mFc).
T6 construct: whole, on cells; Jurkat is a human T cell line
Experimental: The plate was incubated at room temperature for 1 h. After the plate was washed twice with PBS buffer, 100 μL of anti-CD47 chimeric antibodies (Table 7) was added to each well. 4-fold dilution was performed with PBS buffer from a starting concentration of 20 μg/mL, with 8 gradients obtained. The plate was incubated at room temperature for 1-2 h. […] The plate was incubated at room temperature for 1 h and washed 3 times with PBS buffer.
B11 was tested, and the IC50 was 1.28 µg/mL.

Target: T2, human CD47 protein on CHO-K1-CD47 cells
Test: cell binding, CHO-K1-CD47 cells, high content imaging
Remark: another data set of the same source
Experimental: as §2
For B11, the EC50 was 0.541 µg/mL. For B12, the EC50 was 30.8 µg/mL.
